Results as given in patent US20240115500A1, “POLYMERIC MICELLE COMPLEXES OF MRNA OR ZWITTERIONIC AGENTS, AND FORMULATIONS AND USES THEREOF” (Aravasc Inc., priority 2020, published 2024).

B1: interferon gamma: interferon protein tested for complexation with PBC (protein, UniProt P01579 24-161, looked up)
Interferon gamma: QDPYVKEAENLKKYFNAGHSDVADNGTLFLGILKNWKEESDRKIMQSQIVSFYFKLFKNFKDDQSIQKSVETIKEDMNVKFFNSNKKKRDDFEKLTNYSVTDLNVQRKAIHELIQVMAELSPAAKTGKRKRSQMLFRG

Experiment: Agarose gel electrophoresis of protein + PBC formulations at defined w/w ratios (Example 2)
[1] = polymer:protein ratio 15:1, FIG. 2A-2D

Description: Unless otherwise indicated, the complexation was conducted at room temperature by incubating the PBC with the protein for 10-20 minutes on a microcentrifuge. A formulation of PBC alone was prepared along with the protein and PBC complexes.
Formulation were prepared as described above and analyzed by agarose gel electrophoresis. A 2% agarose gel was prepared and 20 μl of each formulation was loaded at the center of the gel. The gel was run for 30 minutes at 75V.

Row | Molecule | complexation with the polymer (agarose gel) [1] | complexation with the polymer (agarose gel) (polymer:protein ratio 30:1, FIG. 2A/2B) | complexation with the polymer (agarose gel) (polymer:protein ratio 18:1, FIG. 2D)
1 | Semaglutide | significantly complex | significantly complex | –
2 | interferon alpha | – | – | significantly complex
3 | B1 | significantly complex | – | –
